Reference: article PMC8632722

Biological target: His-TF-LqqP (Lysobacter enzymogenes OH11)
Assay: MST

Substance: PcoI-His (enzyme)
- Kd: 646 nM
